Assay results as given in patent US20240166768A1 (YEDA RESEARCH AND DEVELOPMENT, published 2024).

Molecular target: BSA (bovine, UniProt P02769)
Test: ELISA heatmap, OD630
Procedure: ELISA reactions were carried out using flat-bottom MaxiSorp™ 96-well plates (Invitrogen). Antigen coating was performed in PBS at 1001 per well and left overnight at 4° C. For standard dose response ELISA assays, antigens were plated at a concentration of 1 μg/ml. For comparative ELISA assays with multiple antigen targets, antigens were plated at a constant molar concentration of 50 nM. The plates were washed 5 times with washing buffer (1×PBS with 0.05% Tween-20 (Sigma-Aldrich)) and incubated with 1001 blocking buffer (1×PBS with 1% BSA) for 1 h at room temperature. The blocking solution was subsequently replaced by serial dilutions of either mono- or polyclonal antibodies or serum samples for 2.5 h at RT. For standard dose response ELISA assays, antibodies were introduced over a range of dilutions whereas for ELISA screens, antibodies were introduced at 100 nM. Serum samples were assayed at a dilution of 1:100. Plates were washed 5 times with washing buffer and then incubated with anti-human IgG secondary antibody conjugated to horseradish peroxidase (HRP) (Jackson Immuno Research) in PBS at a 1:5,000 dilution. After washing the plates for additional 5 times, the plates were developed using TMB (Thermo Fisher) and absorbance was measured at 630 nm with an ELISA microplate reader (Synergy HTX plate reader, Biotek).
Strikingly, in 3/4 patients, monoclonal antibodies that bound MMP14 with various degrees of effectiveness and specificity were detected, confirming the analysis using polyclonal patient-derived antibodies. In order to further examine the specificity of the monoclonal antibodies, the binding activity of the antibodies was tested in different dilutions by ELISA.

Chain of BSA (P02769 25-607 limits assumed): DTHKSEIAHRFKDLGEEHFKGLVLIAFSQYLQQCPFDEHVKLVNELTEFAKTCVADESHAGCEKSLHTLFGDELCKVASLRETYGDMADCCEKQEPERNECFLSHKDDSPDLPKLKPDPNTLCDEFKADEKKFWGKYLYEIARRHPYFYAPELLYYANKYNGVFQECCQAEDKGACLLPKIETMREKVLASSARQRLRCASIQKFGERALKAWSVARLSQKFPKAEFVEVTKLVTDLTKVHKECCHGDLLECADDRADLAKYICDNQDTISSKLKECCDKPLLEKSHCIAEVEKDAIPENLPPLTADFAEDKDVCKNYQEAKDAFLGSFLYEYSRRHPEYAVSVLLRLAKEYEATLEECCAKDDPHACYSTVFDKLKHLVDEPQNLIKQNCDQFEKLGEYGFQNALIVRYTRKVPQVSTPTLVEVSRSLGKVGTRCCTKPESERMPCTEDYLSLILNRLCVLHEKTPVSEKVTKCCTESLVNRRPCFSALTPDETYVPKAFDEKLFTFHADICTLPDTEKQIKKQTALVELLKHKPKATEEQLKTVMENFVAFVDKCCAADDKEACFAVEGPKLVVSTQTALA

Binder | binding result
T19 (antibody, V domains shown) VH: EVQLLESGGGLVQPGGSLRLSCAASGFTFDNYGMSWVRQAPGKGLEWVSVISSGGVGTYYADSVKGRFIISRDNAKNTLYLQMNSLRAEDTAVYYCAKDLLRYESSGYSPWGQGTLVTVSS VL: EIVLTQSPATLSLSPGDRATLSCRASQSVNTYLAWYQHKPGQAPRLLIYDASKRATGIPARFSGSGSGTDFTLTISSLEPEDFAVYYCQQRANRPPLTFGGGTKVEIK | no binding (tested: 100 nM)
T29 (antibody, V domains shown) VH: QLQLQESGPGLVKPSETLSLTCTVSGGSISSSSYYWGWIRQPPGKGLEWIGSLSYTGSTYYNPSLKSRVTISLDTSKNQFSLKLSSVTAADTAVYYCARESGSGGTHTDSWGQGTLVSVSS VL: QSVLTQPPSVSAAPGQKVTISCSGSSSNIGNNYVSWYQQLPGTAPKLLIYDNNKRPSGIPDRFSGSKSGTSATLGISGLQTGDEADYYCGTWDSSLSAWVFGGGTKLTVL | no binding (tested: 100 nM)
T25 (antibody, V domains shown) VH: EVQLVESGGGLVKPGGSLRLSCAPSGFIFSNTWMSWVRQAPGKGLEWVGHIKSKADGGTTDYAAPVKGRFTISRDDSRNTLYLQMDSLKTEDTGVYYCTTGWYSTLDYWGQGTLVTVSS VL: QSVLTQPPSASGTPGQRVTISCSGSTSNVGTNYVYWCQQFPGAAPKLLMYRNDRRPSGVPDRFSGSKSGTSASLAISGLRSEDEADYYCAAWDDSLSSWVFGGGTKLTVL | no binding (tested: 100 nM)
T1 (antibody, V domains shown) VH: EVQLVESGGGLEQPGRSLRLSCAASGFSFGDNAMTWFRQAPGKGLEWVGIIRAKGYGGTTEYAASVKGRFTISRDDSKSIAFLQMNNVKVEDTGVYYCAKYASGWEVGFDPWGQGTLVTVSS VL: AIQMTQSPSSLSASVGDRVTITCRASQFIRNDLGWYQQKPGRAPKLLIYAASGLHSGVPARFSGNGSATDFTLTITSLQPEDFATYYCLQDYNFPWTFGQGTKVEIK | no binding (tested: 100 nM)
T21 (antibody, V domains shown) VH: QVQLQESGPGLVKPSQTLSLTCTVSGGSFSNSNYYWSWIRQPAGKGLEWIGHIYASAITHYNPSLKSRVTISKDTSKNQFSLNLRSVTAADTAVYFCARGFRLAAEAYYHGMDVWGQGTTVTVSS VL: DIQMTQSPSSLSASVGDRVTITCRASQSINNFLNWYQQKPGKAPKLLIYGASSLQSGVPSRFSASGSGTDFSLTISGLIPEDFAIYYCQQSDTTPWTFGQGTKVDIK | no binding (tested: 100 nM)
T15 (antibody, human IgG1, V domains shown) VH: EVQLVESGGGLVQPGGSLRLSCAASGFTFNNYWMTWVRQAPGKGLEWVANVNQDGNEKNYVDSVRGRFTISRDNAKNSLHLQMKSLISDDTAVYYCARVGGGDYYDSSGYYWFDTWGQGALVTVSS VL: not shown | no binding (tested: 100 nM)
T4 (antibody, V domains shown) VH: QVQLVQSGGEVKKPGASAKVSCKTSGFTFTSYGISWVRQAPGQGLEWMGWINTYNGNTKYAQRLQGRVSMTTDTSTNTAYMELRSLRSDDTAVYYCARGQGRYGDYIYNHWGQGTLVIVSS VL: DIQMTQSPSTLSASVGDRVTITCRASQIISSWVAWYQQRPGKAPKLLIFDASILESGVPSRFSGSATGTEFSLTISGLQPDDFATYYCQHYNDFPLSFGGGTKVEIK | no binding (tested: 100 nM)

Continued, values first:

binding result | Binder
no binding (tested: 100 nM) | T24 (antibody, V domains shown) VH: QLQLQESGSGLVKPSQTLSLTCAVSGGSISSSDYSWSWIRQPPGKGLEWIGYIYHSGNTYYNPSVKSRVTISLDSSKNHFSLTLTSVTAADTAIYYCARDPGGNSGWFDPWGQGALVTVSS VL: SYELTQPTSVSVSPGQTARITCSGDALPSQYAYWYQQKPGQAPILIIYKDNKRPSGIPERFSGSSSGTRVTLTISGVQPEDEADYYCQSADRSGRYVFGTGTRVPVL
no binding (tested: 100 nM) | T14 (antibody, human IgG1, V domains shown) VH: EVQLVESGGGLVQPGGSLRLSCAVSGFTFNNYWMTWVRQAPGKGLEWVANIKGDGSEKTYVDSVKGRFTVSRDNANNSLHLQMKSLRAEDTAVYYCARVGGGDYYDSSGYYWLDTWGQGTLVTVSS VL: not shown
no binding (tested: 100 nM) | T18 (antibody, V domains shown) VH: EVQLVESGGGLVQPGGSLRLSCAASGFTFSSYWMTWVRQAPGKGLEWVANIKPDGSEKNYVDSVKGRFTISRDNAENSLYLQMNSLRAEDTAVFYCARDLRYCSSTSCSPALDYWGQGTLLTVSS VL: DIQMTQSPSSLSASVGDRVTITCRASQSIASYLNWYQQKPGRAPKLLIYAASTSGVPSRFSGSGSGTDFTLTISSLQPEDFATYYCQQSYTTPRTFGQGTKVEIK
no binding (tested: 100 nM) | T20 (antibody, V domains shown) VH: QVQLQESGPGLLKPSQTLSLTCTVSGAFLNSGGYYWTWIRQHPGKGLEWIGYIYYSGTTYYNPSLKSRVTISVDTSKNQFSLNVNSVIAADTAVYYCARAPRIPFGEVIGGAAFDVWGQGTTVIVSS VL: EIVLTQSPGTLSLSPGERATLSCRASQSVTSNFVGWYQQKPGQAPRLLIYAASSRPTGIPERFSGSGSGTDFTLTISRLEPEDFAVYYCEQYGSSPRTFGPGTKVEIK
no binding (tested: 100 nM) | T28 (antibody, V domains shown) VH: QVQLQESGPGLVKPSETLSLSCAVSGGSIRGYSWSWIRQPPGKGLEWIADMLYTGTTTFNPSLKSRVTISVDTSKNQFSLKLTSVTAADTAVYYCARGPTVSGPIVVDYWGPGTLVTVSS VL: NFMLTQPHSVSESPGKTVTISCTGSSGSIASNYVQWYQQRPGSAPTTLIYEDKQRPSGVPDRFSGSIDSSTNSASLTISGLKTEDEADYYCQSFDSSNRWVFGGGTKVTVL
no binding (tested: 100 nM) | T5 (antibody, V domains shown) VH: QVQLVESGGGVVQPGRSLRLSCAASGFTFSSHAMHWVRQAPGKGLQWVALISYDGYNKYYAESVQGRFTLSRDNSKNTLYLQMNSLRAEDTAVYYCARDRDSSGYIFDYWGQGTLVTVSS VL: DIQMTQSPSSLSASVGDRVTITCQASQDISNYLNWYQQKPGKAPKVLIYDASNLERGVPSRFSGSGSGTAFTFTISSLQPEDIATYYCQQYDNLPSFGGGTKVEIK
no binding (tested: 100 nM) | T2 (antibody, V domains shown) VH: QVQLVQSGAEVKKPGASVNVSCKASGYNFKAYGVGWVRQAPGQGLEWMGWITPYNGKTNYAQKIQGRVTMTTDTSTTTAYMELRSLQPDDTAMYFCARTPAALASFDYWSQGTLVTVSS VL: DIQMTQSPSTLSASVGDRVTITCRASQSISSWLAWYQQKAGKAPKLLIFDASTLQSGVPSRFSGSGSGTEFSLTISSLQPDDFATYYCQQYYSYSTFGQGTKVEIR
no binding (tested: 100 nM) | T6 (antibody, V domains shown) VH: QVQLQQSGPGLVKPSQTLSLTCAISGDSVSSNSAAWNWIRQSPSRGLEWLGRTYYRSRWYSDYAFSVRSRIIVKADTSRNLFSLQLNSMTPEDTAIYYCARDLGIAAADWFDSWGQGTLVTVSS VL: EIVMTQSPATLSVSPGDRATLSCRASQSVSNRLAWYQQKPGQAPRLLIYDASTRATDIPARFSGSGSGTEFTLTISSLQSEDFAIYFCHQYHNWPGFGPGTKLEIK
